In one test the test system is K. pneumoniae. Briefly: K. pneumoniae (5×10^2 CFU/mouse) systemic sepsis model in mice. It counts as in vivo, Male FVB mice. The procedure:
TNF-α in conditioned medium or mouse serum was measured by an enzyme-linked immunosorbent assay (ELISA) (R&D Systems, Minneapolis, Minn.). Accumulation of nitrite in the medium or mouse serum was determined by a colorimetric assay using Griess reagent (Sigma-Aldrich). Blood urea nitrogen (BUN) and creatinine were measured with a Roche D&P modular (Roche Diagnostic Systems, Branchburg, N.J.). Assays were performed according to the manufacturer's protocol.
Male FVB mice (8-10 weeks old) were used to model sepsis in vivo. The Institutional Animal Care and Use Committee of the National Cheng Kung University approved procedures. In the chronic endotoxemia model, various concentrations of rTMD1 or rTMD proteins in equi-molar amounts were administrated by tail intravenous (i.v.) injection and LPS (20 mg/kg) or K. pneumoniae (5×10^2 CFU/mouse, BCRC) was administrated by intraperitoneal (i.p.) injection. After 6 or 12 hours, mice were sacrificed by pentobarbital anesthesia (50 mg/kg; i.p.). Sera were collected and assayed for TNF-α, NO, BUN, and creatinine, and lung and kidney tissues were removed, fixed with formalin, and embedded in paraffin for histochemical examination. In the lethal sepsis model, rTMD1 (2 mg/kg, equals 87.3 nmole/kg) was i.v.-administrated at 0, 6, 12, and 24 hours after i.p. administration of LPS (40 mg/kg). The half-life of rTMD1 in the circulation was determined by i.v. injection of rTMD1 (10 mg/kg, equals 436.64 nmole/kg) and serum samples were collected at various time intervals. The levels of rTMD1 in the collected sera were determined by a sandwich ELISA which employed anti-c-Myc monoclonal antibody and TM-H300 as capture and detection antibodies (both from Santa Cruz Biotechnology), respectively. […] Mortality was monitored every 6-12 hours until all mice in either experimental group died. Experimental procedure of determining LPS half-life is as following. LPS (20 mg/kg) was i.p.-administrated to male FVB mice without or with rTMD1 (10 mg/kg; i.v.). Serum samples were collected at various time intervals and the amount of LPS was determined by Limulus amebocyte lysate test (Associates of Cape Cod, E. Falmouth, Mass.). A further experiment was performed to determine whether rTMD1 affects bacterial clearance. K. pneumoniae (5×10^2 CFU/mouse) was i.p.-administrated to male FVB mice without or with rTMD1 (10 mg/kg; i.v.), and blood samples were collected at various time intervals. Outgrowth of K. pneumoniae was quantified by plating serial dilutions of blood samples on blood agar plates and enumerating colonies after overnight incubation at 37° C.

The nature of test [1]: LPS binding assay (coated wells). Set-up: species or system E. coli. The following applies: FIG. 4B. The procedure: (§1) K. pneumoniae (3×10^5 CFU/well), E. coli O111:B4 smooth-type LPS (5 μg/well), or bovine serum albumin (BSA, 5 μg/well) in 100 μL of bicarbonate buffer (pH 9.6) were coated onto wells of high-binding microtiter plate (Corning Costar, Cambridge, Mass.). Nonspecific binding was blocked with binding buffer (20 mM Tris-HCl, pH 7.4, 0.15 M NaCl, 5 mM CaCl2) containing 50 mg/mL BSA. Various concentrations of rTMD proteins without or with CD14 (10 μg/mL; R&D Systems) in binding buffer containing 1 mg/mL BSA were added to wells and incubated for 2 hours. In some experiments, 0.2 M mannose, 5 mM EDTA, or Le^y were included in the binding buffer to compete with LPS and rTMD1 binding. Antibody against the c-Myc epitope of the rTMD proteins was added to wells and incubated for 2 hours, and peroxidase-labeled secondary antibody followed. Binding of rTMD proteins was detected by measuring absorbance at 450 nm.

In the next test the target is T1, binding of CD14 to LPS (Homo sapiens, UniProt P08571).
T1 construct: purchased R&D Systems
T1 sequence (P08571 20-352 limits assumed): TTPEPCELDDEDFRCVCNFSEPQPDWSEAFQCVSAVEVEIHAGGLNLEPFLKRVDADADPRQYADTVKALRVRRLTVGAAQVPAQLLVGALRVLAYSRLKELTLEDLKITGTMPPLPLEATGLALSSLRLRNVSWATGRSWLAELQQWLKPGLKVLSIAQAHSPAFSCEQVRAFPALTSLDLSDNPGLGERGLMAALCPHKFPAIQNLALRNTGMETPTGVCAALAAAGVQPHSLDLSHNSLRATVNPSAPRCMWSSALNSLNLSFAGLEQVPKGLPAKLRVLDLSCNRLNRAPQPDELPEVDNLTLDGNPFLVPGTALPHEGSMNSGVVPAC
Briefly: Blockage of the binding of CD14 to LPS. As to conditions: FIG. 4D. The procedure:
as §1

Where [2] appears, read: rTMD1 5-25 mg/kg i.v., 12 hours, 5×10^2 CFU.

The values below come from patent publication US20120165244A1, “METHODS FOR BINDING LEWIS Y ANTIGEN” (priority 2008, published 2012).

B1: rTMD1: recombinant human thrombomodulin N-terminal lectin-like domain (residues Ala1-Ala155) with 6×His tag and c-Myc epitope, Pichia pastoris expressed (protein)
chain: EFAPAEPQPGGSQCVEHDCFALYPGPATFLNASQICDGLRGHLMTVRSSVAADVISLLLNGDGGVGRRRLWIGLQLPPGCGDPKRLGPLRGFQWVTGDNNTSYSRWARLDLNGAPLCGPLCVAVSAAEATVPSEPIWEEQQCEVKADGFLCEFHFPAYLEDDDDKIEQKLISEEDLNSAVDHHHHHH
modifications: left off: small tags and cut ends
In the case of B1, the “survival, post-treatment” value in the test on K. pneumoniae (all rTMD1-treated groups vs infected mice without rTMD1) is given as “improved”. Besides, in the test on K. pneumoniae (rTMD1 10 mg/kg i.v. immediately, 30 or 60 minutes after K. pneumoniae), the “K. pneumoniae-induced TNF-α release, post-treatment” value is on record as “effectively suppress”. Moreover, in the test with K. pneumoniae (setting [2]), the “NO production in K. pneumoniae-infected mice” value was “effectively reduced” and the “TNF-α production in K. pneumoniae-infected mice” value is given as “effectively reduced”. Besides, in test [1], the “binding to LPS” value is recorded as “specifically bound”. Also, in test [1] (estimated from the 50% saturation, read-out: apparent Kd of the binding of LPS with rTMD1), the Kd was roughly 1600 nM. For the same molecule, the “binding of CD14 to LPS” value in the test with binding of CD14 to LPS was “inhibited”.
